# Data taken from publication PMC3517063 (Proteomics, 2012).
# Biological target: the molecule itself
# Test: cross-linking
row,Protein,binding result
1,"proteasomal 20S core particle subunit α1 with His6 tag (α1-His6) (natural protein, Haloferax volcanii, UniProt Q9V2V6 1-252, looked up) MQGQAQQQAYDRGITIFSPDGRLYQVEYAREAVKRGTASIGVRTPEGVVLAADKRSRSPLMEPTSVEKIHKADDHIGIASAGHVADARQLIDFARRQSQVNRLRYGEPIGIETLTKEVTDHIQQYTQVGGARPFGVALLIGGVENGTPRLYETDPSGTPYEWKAVSIGADRGDHQEHLEENFRDDLTLDEGIELALEAIASTSDEGTAPDGVDVATVSAETERFVELSNDEIESYLEANDLLATEDDEQTEE",binds
2,"proteasomal 20S core particle subunit α2 with C-terminal His6 tag (α2-His6) (natural protein, Haloferax volcanii, UniProt Q9V2V5 1-249, looked up) MNRNDKQAYDRGTSLFSPDGRIYQVEYAREAVKRGAPVLGVRTADGVVLAALRSTPSELMEAESIEKLHKLDDALGAATAGHVADARKLVDFARTTAQREHLRYGEPIGVETLTKTITDNIQESTQSGGTRPYGASLLIGGVENGSGRLFATDPSGTPQEWKAVAIGGHREDVQAALEDGYAEDLSLEDGLALAVEALVAADEEIESDELNLVTVSEAGYEIVDEETIAELFADATADDESDETDEREE",binds
